The record followed here is patent publication US20170052184A1.

For test [1], the target named is HCV Core Peptide # 48 (aa 95-109) (hepatitis C virus). Briefly: EIA on coated peptide 48 (well H6); IgG 2 ug/mL.
Test [2] addresses HCV Core Peptide # 51 (aa 101-115) (hepatitis C virus). The test can be described thus: EIA on coated peptide 51 (well C7); IgG 2 ug/mL.
Test [3] has as its target HCV Core Peptide # 53 (aa 105-119) (hepatitis C virus). The test can be described thus: EIA on coated peptide 53 (well E7); IgG 2 ug/mL.
The target in test [4] is HCV Core Peptide # 55 (aa 109-123) (hepatitis C virus). Briefly: EIA on coated peptide 55 (well G7); IgG 2 ug/mL.
The target in test [5] is HCV Core Peptide # 50 (aa 99-113) (hepatitis C virus). Briefly: peptide EIA summary (Table 11), peptide 50, aa 99-113.
The target of test [6] is HCV Core Peptide # 52 (aa 103-117) (hepatitis C virus). Briefly: peptide EIA summary (Table 11), peptide 52, aa 103-117.
Test [7] concerns the target HCV Core Peptide # 54 (aa 107-121) (hepatitis C virus). The test can be described thus: peptide EIA summary (Table 11), peptide 54, aa 107-121.
For test [8], the target named is HCV Core Peptide # 55 (aa 109-123) (hepatitis C virus). Briefly: peptide EIA summary (Table 11), peptide 55, aa 109-123.
For test [9], the target named is HCV Core Peptide # 53 (aa 105-119) (hepatitis C virus). The test can be described thus: peptide EIA summary (Table 11), peptide 53, aa 105-119.
Test [10] deals with HCV Core Peptide # 52 (aa 103-117) (hepatitis C virus). The test can be described thus: EIA on coated peptide 52 (well D7); IgG 2 ug/mL.
Test [11] addresses HCV Core Peptide # 51 (aa 101-115) (hepatitis C virus). Briefly: peptide EIA summary (Table 11), peptide 51, aa 101-115.
Test [12] concerns the target HCV Core Peptide # 48 (aa 95-109) (hepatitis C virus). The test can be described thus: peptide EIA summary (Table 11), peptide 48, aa 95-109.
Test [13] addresses HCV Core Peptide # 49 (aa 97-111) (hepatitis C virus). The test can be described thus: EIA on coated peptide 49 (well A7); IgG 2 ug/mL.
Test [14] deals with HCV Core Peptide # 54 (aa 107-121) (hepatitis C virus). The test can be described thus: EIA on coated peptide 54 (well F7); IgG 2 ug/mL.
Test [15] concerns the target HCV Core Peptide # 49 (aa 97-111) (hepatitis C virus). The test can be described thus: peptide EIA summary (Table 11), peptide 49, aa 97-111.
Test [16] concerns the target HCV Core Peptide # 50 (aa 99-113) (hepatitis C virus). Briefly: EIA on coated peptide 50 (well B7); IgG 2 ug/mL.
The target in test [17] is HCV Core1-169 recombinant antigen (hepatitis C virus (HCV-1)) (UniProt P26664). Briefly: sandwich EIA, 25 ng/ml core1-169; capture mAb 208A-110.
HCV Core1-169 recombinant antigen (hepatitis C virus (HCV-1)), sequence (P26664 1-169, tags left off): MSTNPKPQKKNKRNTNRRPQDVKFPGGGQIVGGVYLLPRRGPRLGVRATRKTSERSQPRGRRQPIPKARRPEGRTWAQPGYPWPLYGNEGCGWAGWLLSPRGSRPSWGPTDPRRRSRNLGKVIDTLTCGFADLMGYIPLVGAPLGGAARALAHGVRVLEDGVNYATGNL
The target is the same in test [18]. The test can be described thus: sandwich EIA, 25 ng/ml core1-169; capture mAb 208A-293.
For test [19] the target is unchanged. The test can be described thus: sandwich EIA, 25 ng/ml core1-169; capture mAb 208B-741.
For test [20] the target is unchanged. Briefly: sandwich EIA, 25 ng/ml core1-169; capture NC capture mAb.
Test [21] has the same target. Briefly: sandwich EIA, 25 ng/ml core1-169; capture mAb 208B-612-226.
The target is the same in test [22]. Briefly: sandwich EIA, 25 ng/ml core1-169; capture mAb C11-9.
The target is the same in test [23]. Briefly: sandwich EIA, 25 ng/ml core1-169; capture mAb 208B-1096.
The target is the same in test [24]. The test can be described thus: sandwich EIA, 25 ng/ml core1-169; capture mAb 208A-557.
Test [25] has the same target. Briefly: sandwich EIA, 25 ng/ml core1-169; capture mAb 208A-692.
For test [26] the target is unchanged. Briefly: sandwich EIA, 25 ng/ml core1-169; capture mAb 208A-207-271.
Test [27] shares this target. Briefly: sandwich EIA, 25 ng/ml core1-169; capture mAb C11-7.
The target is the same in test [28]. Briefly: sandwich EIA, 25 ng/ml core1-169; capture mAb 208B-395-334.

Regarding C11-3 (ABT-4) monoclonal antibody, the OD (A492 nm) in test [1] was 0.81 OD; in test [2], 1 OD; in test [3], 0.36 OD; in test [4] it was 0.06 OD; in test [5], 1.03 OD (A492 nm); in test [6], 1.01 OD (A492 nm). Besides, the OD (A492 nm) in test [7] was 0.08 OD (A492 nm); in [8] it was 0.08 OD (A492 nm); in test [9] it was 0.36 OD (A492 nm); in [10] it was 0.96 OD; in test [11], 1.01 OD (A492 nm); in test [12], 0.95 OD (A492 nm). Besides, the OD (A492 nm) in test [13] was 0.97 OD; in test [14], 0.08 OD; in [15] it was 1.03 OD (A492 nm); in [16], 0.97 OD.
anti-HCV Core C11-7 monoclonal antibody: the OD492 nm turned out to be 1.78 OD492 in test [17]; 1.55 OD492 in test [18]; 1.76 OD492 in [19]; 0.22 OD492 in [20]; 0.53 OD492 in [21]; 1.04 OD492 in [22]. In addition, the OD492 nm was determined as 0.45 OD492 in test [23]; 0.64 OD492 in [24]; 0.18 OD492 in [25]; 0.22 OD492 in test [26]; 0.23 OD492 in test [27]; 0.46 OD492 in test [28].
Regarding anti-HCV Core C11-9 monoclonal antibody, the OD492 nm in test [17] stood at 2.59 OD492; in [18], 1.84 OD492; in test [19], 2.32 OD492; in test [20] it was 0.62 OD492; in test [21], 0.63 OD492; in test [22], 2.75 OD492. Also, the OD492 nm came to 0.82 OD492 in test [23]; 1.18 OD492 in test [24]; 0.58 OD492 in test [25]; 0.44 OD492 in test [26]; 1.91 OD492 in test [27]; 0.95 OD492 in [28].
With “negative control (NC) monoclonal antibody”, the OD492 nm is 0.16 OD492 in test [17]; 0.23 OD492 in [18]; 0.18 OD492 in test [19]; 0.18 OD492 in test [20]; 0.22 OD492 in [21]; 0.14 OD492 in test [22]. Moreover, the OD492 nm in test [23] was found to be 0.21 OD492; in test [24], 0.18 OD492; in test [25] it was 0.15 OD492; in test [26], 0.17 OD492; in test [27], 0.17 OD492; in test [28] it was 0.22 OD492.
